Measurements published in patent publication US12097241B2, “Methods of treating kidney failure, and/or improving or stablizing renal function using modified relaxin polypeptides” (BRISTOL-MYERS SQUIBB COMPANY, priority 2017, dated 2024).
Where two headings read alike, the source gives them in different places.

Legend:
[1] = In vivo pharmacokinetic (PK) studies in rats; set-up: species or system Sprague-Dawley rats; conditions: rat, male Sprague-Dawley rats, single SC dose 1.0 mg/kg, serum ELISA; for AUC(0-inf): read-out: Rat PK AUC Total; for level at time molar at 24 h: read-out: Rat PK C24
Protocol: […] Blood samples were collected via jugular vein at different time points out to 72 hours. Blood samples were allowed to coagulate at room temperature (30-60 m) and then centrifuged (1500-2000) at 4° C. to obtain serum. After centrifugation serum samples were transferred to 96 well plates and stored at −80° C. until bioanalysis. Relaxin concentrations were measured from serum by ELISA.
Relaxin concentration-time profiles from individual animals were used for analysis. Pharmacokinetic parameters were calculated by non-compartmental methods using Phoenix WinNonlin (version 6.4) or Kinetica (version 5). Mean pharmacokinetic parameters Cmax, AUCinf, C24 and half-life were reported (Table 4). Table 4. In vivo PK data (abbreviations as in Table 3).

human RXFP1 receptor = target: T1, human RXFP1 receptor (Homo sapiens, UniProt Q9HBX9); assay: Intracellular cAMP accumulation assay; format: cell-based
T1 construct: expressed in transfected cells
T1 sequence (Q9HBX9 1-757): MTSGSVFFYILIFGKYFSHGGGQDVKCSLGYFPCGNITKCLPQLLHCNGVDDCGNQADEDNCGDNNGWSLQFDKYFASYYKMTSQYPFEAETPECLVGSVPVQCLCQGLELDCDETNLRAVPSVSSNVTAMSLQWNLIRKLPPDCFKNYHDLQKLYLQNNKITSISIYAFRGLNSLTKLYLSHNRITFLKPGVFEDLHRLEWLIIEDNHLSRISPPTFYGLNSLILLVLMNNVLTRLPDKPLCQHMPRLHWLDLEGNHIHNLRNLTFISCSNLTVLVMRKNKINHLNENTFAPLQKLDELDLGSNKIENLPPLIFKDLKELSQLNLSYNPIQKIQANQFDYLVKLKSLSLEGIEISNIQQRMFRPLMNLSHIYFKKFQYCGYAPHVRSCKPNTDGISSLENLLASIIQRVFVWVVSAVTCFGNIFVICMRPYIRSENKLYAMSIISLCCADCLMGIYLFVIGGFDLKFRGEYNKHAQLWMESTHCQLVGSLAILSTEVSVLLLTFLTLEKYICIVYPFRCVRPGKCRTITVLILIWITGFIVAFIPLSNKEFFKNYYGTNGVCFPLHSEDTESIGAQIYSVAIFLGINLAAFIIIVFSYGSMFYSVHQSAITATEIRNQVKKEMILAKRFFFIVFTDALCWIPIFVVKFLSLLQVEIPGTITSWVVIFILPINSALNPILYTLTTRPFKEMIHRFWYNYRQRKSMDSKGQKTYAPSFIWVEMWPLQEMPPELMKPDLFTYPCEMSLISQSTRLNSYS
Protocol: The intracellular cAMP accumulation assay described herein was used to assess relaxin bioactivity and potency.
CHO-K1 cells (ATCC; Cat. #CRL-9618) stably expressing the human RXFP1 receptor (locus number LOC59350) (10,000/well) were plated into 96-well plates and cultured overnight at 37° C. and 5% CO2. On the following day, the medium was removed from the wells and the cells were stimulated with the addition of ligand (relaxin polypeptide) in 50 uL buffer (1×HBSS, 5 mM HEPES (7.2), 0.5 mM IBMX, 0.1% BSA); incubation was for 10 min at 37° C. Unstimulated cells were utilized as reference controls. Reactions were terminated and cellular cAMP levels were measured using the Homogeneous Time Resolved Fluorescence (HTRF) Dynamic 2 cAMP kit (CisBio, #62AM4PEC) according to the manufacturer's protocol. Plates were analyzed using an EnVision 2104 Multilablel Reader (PerkinElmer). Signal was expressed in terms of the ratio of fluorescence intensity @ 665 nm/fluorescence intensity @620 nm×10,000. The concentration of cAMP in the sample was determined by comparison with standard curves generated from known concentrations of cAMP. The potency of each relaxin was determined using a ten-point concentration response curves which was performed in duplicate. The data were analyzed using Microsoft Excel, Version 2013 Xlfit software. Effective concentration 50 (EC50) values, the point at which the response was one-half maximal, were calculated using a four-parameter logistic equation that allowed for a variable-slope (Table 3).

Question: With `CC[C@H](C)[C@@H]1NC(=O)[C@H](C)NC(=O)[C@H]([C@@H](C)CC)NC(=O)[C@H](CCC(N)=O)NC(=O)[C@H](C)NC(=O)[C@H](CCCNC(=N)N)NC(=O)[C@H](C(C)C)NC(=O)[C@H](CC(C)C)NC(=O)[C@H](CCC(=O)O)NC(=O)[C@H](CCCNC(=N)N)NC(=O)CNC(=O)[C@@H](NC(=O)[C@H](CC(C)C)NC(=O)[C@H](CCCCN)NC(=O)[C@@H](NC(=O)[C@@H](NC(=O)[C@H](CCC(=O)O)NC(=O)[C@H](CCC(=O)O)NC(=O)[C@H](CCSC)NC(=O)[C@H](Cc2c[nH]c3ccccc23)NC(=O)[C@H](CO)NC(=O)[C@H](C)N)C(C)C)[C@@H](C)CC)CSSC[C@@H]2NC(=O)[C@@H](NC(=O)[C@H](CCCCN)NC(=O)[C@H](CC(N)=O)NC(=O)[C@H](C)NC(=O)[C@H](CC(C)C)NC(=O)[C@H](C)NC(=O)[C@H](CO)NC(=O)[C@H](Cc3ccc(O)cc3)NC(=O)[C@H](CC(C)C)NC(=O)[C@@H](N)Cc3ccc(C(C)=NOCCNC(=O)[C@H](CCCCN)NC(=O)[C@H](CCCCN)NC(=O)CC[C@H](NC(=O)CCCCCCCCCCCCCC(=O)O)C(=O)O)cc3)CSSC[C@H](NC(=O)CNC(=O)[C@H](C(C)C)NC(=O)[C@H](Cc3c[nH]cn3)NC2=O)C(=O)N[C@@H]([C@@H](C)O)C(=O)N[C@@H](CCCCN)C(=O)N[C@@H](CCCNC(=N)N)C(=O)N[C@@H](CO)C(=O)N[C@@H](CC(C)C)C(=O)N[C@@H](C)C(=O)N[C@@H](CCCNC(=N)N)C(=O)N[C@@H](Cc2ccccc2)C(=O)N[C@H](C(=O)O)CSSC[C@@H](C(=O)NCC(=O)N[C@@H](CCSC)C(=O)N[C@@H](CO)C(=O)N[C@H](C(=O)N[C@@H](Cc2c[nH]c3ccccc23)C(=O)N[C@@H](CO)C(=O)O)[C@@H](C)O)NC1=O` [AQ1-KK-Glu^γ-C14-COOH] as the compound, how does the AUC(0-inf) [1] read?
Answer: 0.451 µM·h

Question: And the level at time molar at 24 h [1]?
Answer: 1.5 nM

Question: What about the EC50 (human RXFP1 receptor) of the same compound?
Answer: 0.34 nM

Question: For `CC[C@H](C)[C@@H]1NC(=O)[C@H](C)NC(=O)[C@H]([C@@H](C)CC)NC(=O)[C@H](CCC(N)=O)NC(=O)[C@H](C)NC(=O)[C@H](CCCNC(=N)N)NC(=O)[C@H](C(C)C)NC(=O)[C@H](CC(C)C)NC(=O)[C@H](CCC(=O)O)NC(=O)[C@H](CCCNC(=N)N)NC(=O)CNC(=O)[C@@H](NC(=O)[C@H](CC(C)C)NC(=O)[C@H](CCCCN)NC(=O)[C@@H](NC(=O)[C@@H](NC(=O)[C@H](CCC(=O)O)NC(=O)[C@H](CCC(=O)O)NC(=O)[C@H](CCSC)NC(=O)[C@H](Cc2c[nH]c3ccccc23)NC(=O)[C@H](CO)NC(=O)[C@H](C)N)C(C)C)[C@@H](C)CC)CSSC[C@@H]2NC(=O)[C@@H](NC(=O)[C@H](CCCCN)NC(=O)[C@H](CC(N)=O)NC(=O)[C@H](C)NC(=O)[C@H](CC(C)C)NC(=O)[C@H](C)NC(=O)[C@H](CO)NC(=O)[C@H](Cc3ccc(O)cc3)NC(=O)[C@H](CC(C)C)NC(=O)[C@@H](N)Cc3ccc(C(C)=NOCCNC(=O)[C@H](CCCCN)NC(=O)[C@H](CCCCN)NC(=O)[C@H](CCCCN)NC(=O)[C@H](CO)NC(=O)CNC(=O)CNC(=O)[C@H](CO)NC(=O)CNC(=O)CNC(=O)CC[C@H](NC(=O)CCCCCCCCCCCCC(=O)O)C(=O)O)cc3)CSSC[C@H](NC(=O)CNC(=O)[C@H](C(C)C)NC(=O)[C@H](Cc3c[nH]cn3)NC2=O)C(=O)N[C@@H]([C@@H](C)O)C(=O)N[C@@H](CCCCN)C(=O)N[C@@H](CCCNC(=N)N)C(=O)N[C@@H](CO)C(=O)N[C@@H](CC(C)C)C(=O)N[C@@H](C)C(=O)N[C@@H](CCCNC(=N)N)C(=O)N[C@@H](Cc2ccccc2)C(=O)N[C@H](C(=O)O)CSSC[C@@H](C(=O)NCC(=O)N[C@@H](CCSC)C(=O)N[C@@H](CO)C(=O)N[C@H](C(=O)N[C@@H](Cc2c[nH]c3ccccc23)C(=O)N[C@@H](CO)C(=O)O)[C@@H](C)O)NC1=O` [AQ1-KKKSGGSGG-Glu^γ-C13-COOH], which AUC(0-inf) [1] is on record?
Answer: 0.264 µM·h

Question: And the level at time molar at 24 h [1]?
Answer: 0.21 nM

Question: What about the EC50 (human RXFP1 receptor) of the same compound?
Answer: 0.14 nM

Question: Which AUC(0-inf) [1] does the source give for `CCCCCCCCCCCCCC(=O)N[C@@H](CCC(=O)NCC(=O)NCC(=O)NCC(=O)N[C@@H](CCC(=O)O)C(=O)N[C@@H](CCC(=O)O)C(=O)N[C@@H](CCC(=O)O)C(=O)NCCON=C(C)c1ccc(C[C@H](N)C(=O)N[C@@H](CC(C)C)C(=O)N[C@@H](Cc2ccc(O)cc2)C(=O)N[C@@H](CO)C(=O)N[C@@H](C)C(=O)N[C@@H](CC(C)C)C(=O)N[C@@H](C)C(=O)N[C@@H](CC(N)=O)C(=O)N[C@@H](CCCCN)C(=O)N[C@H]2CSSC[C@@H]3NC(=O)CNC(=O)[C@H](C(C)C)NC(=O)[C@H](Cc4c[nH]cn4)NC(=O)[C@H](CSSC[C@H](NC(=O)[C@H](CC(C)C)NC(=O)[C@H](CCCCN)NC(=O)[C@@H](NC(=O)[C@@H](NC(=O)[C@H](CCC(=O)O)NC(=O)[C@H](CCC(=O)O)NC(=O)[C@H](CCSC)NC(=O)[C@H](Cc4c[nH]c5ccccc45)NC(=O)[C@H](CO)NC(=O)[C@H](C)N)C(C)C)[C@@H](C)CC)C(=O)NCC(=O)N[C@@H](CCCNC(=N)N)C(=O)N[C@@H](CCC(=O)O)C(=O)N[C@@H](CC(C)C)C(=O)N[C@@H](C(C)C)C(=O)N[C@@H](CCCNC(=N)N)C(=O)N[C@@H](C)C(=O)N[C@@H](CCC(N)=O)C(=O)N[C@@H]([C@@H](C)CC)C(=O)N[C@@H](C)C(=O)N[C@@H]([C@@H](C)CC)C(=O)N[C@H](C(=O)NCC(=O)N[C@@H](CCSC)C(=O)N[C@@H](CO)C(=O)N[C@H](C(=O)N[C@@H](Cc4c[nH]c5ccccc45)C(=O)N[C@@H](CO)C(=O)O)[C@@H](C)O)CSSC[C@@H](C(=O)O)NC(=O)[C@H](Cc4ccccc4)NC(=O)[C@H](CCCNC(=N)N)NC(=O)[C@H](C)NC(=O)[C@H](CC(C)C)NC(=O)[C@H](CO)NC(=O)[C@H](CCCNC(=N)N)NC(=O)[C@H](CCCCN)NC(=O)[C@H]([C@@H](C)O)NC3=O)NC2=O)cc1)C(=O)O` [AQ1-EEEGGG-Glu^γ-C13-CH3] here?
Answer: 0.274 µM·h

Question: What about the level at time molar at 24 h [1] of the same compound?
Answer: 0.4 nM

Question: And the EC50 (human RXFP1 receptor; CHO-K1 cells stably expressing human RXFP1, 10 min at 37° C., HTRF cAMP, average, read-out: hRXFP1/CHO-K1 cAMP EC50 (nM, avg))?
Answer: 0.38 nM

Question: For `CCCCCCCCCCCCCCC(=O)N[C@@H](CCC(=O)N[C@@H](CCC(=O)O)C(=O)N[C@@H](CCC(=O)O)C(=O)N[C@@H](CCC(=O)O)C(=O)N[C@@H](CCC(=O)O)C(=O)N1CCC[C@H]1C(=O)N[C@@H](CCC(=O)O)C(=O)N[C@@H](CCC(=O)O)C(=O)N[C@@H](CCC(=O)O)C(=O)N[C@@H](CCC(=O)O)C(=O)N1CCC[C@H]1C(=O)N[C@@H](CCC(=O)O)C(=O)N[C@@H](CCC(=O)O)C(=O)N[C@@H](CCC(=O)O)C(=O)N[C@@H](CCC(=O)O)C(=O)N1CCC[C@H]1C(=O)N[C@@H](CCC(=O)O)C(=O)N[C@@H](CCC(=O)O)C(=O)N[C@@H](CCC(=O)O)C(=O)N[C@@H](CCC(=O)O)C(=O)NCCON=C(C)c1ccc(C[C@H](N)C(=O)N[C@@H](CC(C)C)C(=O)N[C@@H](Cc2ccc(O)cc2)C(=O)N[C@@H](CO)C(=O)N[C@@H](C)C(=O)N[C@@H](CC(C)C)C(=O)N[C@@H](C)C(=O)N[C@@H](CC(N)=O)C(=O)N[C@@H](CCCCN)C(=O)N[C@H]2CSSC[C@@H]3NC(=O)CNC(=O)[C@H](C(C)C)NC(=O)[C@H](Cc4c[nH]cn4)NC(=O)[C@H](CSSC[C@H](NC(=O)[C@H](CC(C)C)NC(=O)[C@H](CCCCN)NC(=O)[C@@H](NC(=O)[C@@H](NC(=O)[C@H](CCC(=O)O)NC(=O)[C@H](CCC(=O)O)NC(=O)[C@H](CCSC)NC(=O)[C@H](Cc4c[nH]c5ccccc45)NC(=O)[C@H](CO)NC(=O)[C@H](C)N)C(C)C)[C@@H](C)CC)C(=O)NCC(=O)N[C@@H](CCCNC(=N)N)C(=O)N[C@@H](CCC(=O)O)C(=O)N[C@@H](CC(C)C)C(=O)N[C@@H](C(C)C)C(=O)N[C@@H](CCCNC(=N)N)C(=O)N[C@@H](C)C(=O)N[C@@H](CCC(N)=O)C(=O)N[C@@H]([C@@H](C)CC)C(=O)N[C@@H](C)C(=O)N[C@@H]([C@@H](C)CC)C(=O)N[C@H](C(=O)NCC(=O)N[C@@H](CCSC)C(=O)N[C@@H](CO)C(=O)N[C@H](C(=O)N[C@@H](Cc4c[nH]c5ccccc45)C(=O)N[C@@H](CO)C(=O)O)[C@@H](C)O)CSSC[C@@H](C(=O)O)NC(=O)[C@H](Cc4ccccc4)NC(=O)[C@H](CCCNC(=N)N)NC(=O)[C@H](C)NC(=O)[C@H](CC(C)C)NC(=O)[C@H](CO)NC(=O)[C@H](CCCNC(=N)N)NC(=O)[C@H](CCCCN)NC(=O)[C@H]([C@@H](C)O)NC3=O)NC2=O)cc1)C(=O)O` [AQ1-EEEEPEEEEPEEEEPEEEE-Glu^γ-C14-CH3], which EC50 (human RXFP1 receptor) is on record?
Answer: 0.33 nM
